Target: immobilized fibrin (UniProt P02679)
Experiment: cell-free flow-based adhesion assay of protein-coated microspheres; 10-µm polystyrene microspheres coated with immunopurified CD44 or human IgG (2×10^6/ml in DPBS, 0.1% BSA) perfused for 5 min at 37°C over immobilized fibrin in a parallel plate flow chamber, 0.25 to 0.5 dyn/cm^2; interacting microspheres counted by phase-contrast videomicroscopy

reduction of binding relative to CD44s from untreated HL60 cells: 30%
Substance: CD44s immunopurified from PDGF-treated HL60 human myeloid cells (from UniProt P16070-12 21-361) (receptor)

From article PMC3466257
